Measured values reported in US8361793B2, “Monoclonal antibodies against gonadotropin-releasing hormone receptor” (Vancouver Biotech Ltd., priority 2009, dated 2013).

What was measured:
[1] = tested on: OC-3-VGH ovarian cancer cells; assay: MTT assay, anti-proliferative effects; type: cell-based, human; details: 48 hrs; GnRH 0.1 μg/ml, Antide 0.1 and 0.2 μg/ml, GHR-106 10 and 20 μg/ml
Experimental: Anti-proliferative effects of GnRH and GHR-106 monoclonal antibody on the growth of cultured cancer cells were also studied by MTT assay. An MTT assay was performed on cancer cells on a 24-well plate, as described by Choi, J-H, et al., Endocrine-Related Cancer (2006) 13:641-651.
1×10^4 Cells were dispensed into each well and cultured for 48 hours. Following removal of cultured media, fresh medium containing GnRH (0.1 μg/ml) or GHR-106 (10 μg/ml) was added to each well for additional 48 hours incubation. After the culture medium was removed, 200 μl of MTT (3-(4,5-dimethylthiazol-2-yl)-2,5-diphenyltetrazoliumbromide) (2.5 mg/ml in PBS, Sigma) was added to each well. After 5 hours of incubation with MTT at 37° C. in a 5% CO2 incubator, the supernatant was removed, and 200 μl of dimethylsulfoxide (DMSO) was added to each well, and shaking at 150 rpm for 5 min. Absorbance at 560 nm was determined spectrophotometrically. The negative control containing cells without any antibody treatment served as the negative control.

[2] = tested on: ribosomal proteins (P0, P1, P2 and L37) mRNA in OC-3-VGH cancer cells; assay: Semi-quantitative RT-PCR of mRNA expression of ribosomal proteins; type: cell-based, human; details: 24 hours, GHR-106 10 μg/ml, GnRH 0.1 μg/ml, relative to GAPDH
Description: Four ribosomal proteins (P0, P1, P2 and L37) were selected for semi-quantitative analysis of mRNA expression. Expression of mRNA of GAPDH gene was used as the internal control. Primers for amplification were as follows:
A housekeeping gene, glyceraldehyde-3-phosphate dehydrogenase (GAPDH) was amplified to check the functional integrity of cDNA and used as internal control by using 5′-[…]-3′ (sense) (SEQ ID NO:20) and 5′-[…]-3′ (antisense) (SEQ ID NO:21) as primers (805 bp) (11).
RNA extraction, cDNA preparation and PCR amplification were conducted as described above in Preparation A.
Percent changes in RT-PCR signals which represent levels of P0, P1, P2, and L37 ribosomal proteins are presented with respect to GAPDH (100%) at 0 and 24 hrs. Messenger RNA expression of these genes of cultured cells without GHR-106 treatment served as the internal negative control and those with GnRH treatment served as positive control.

A549 = assay: TUNEL apoptosis assay, A549; type: cell-based, human; details: 24-hour treatment
DU-145 = assay: TUNEL apoptosis assay, DU-145; type: cell-based, human; details: 24-hour treatment
MDA-MB-435S = assay: TUNEL apoptosis assay, MDA-MB-435S; type: cell-based, human; details: 24-hour treatment
[3] = target: T1, GnRH receptor on OC-3-VGH cancer cells (Homo sapiens, UniProt P30968); assay: Competition with GHR-106 for binding to microwells coated with OC-3-VGH cancer cells; details: 2 μg/ml GHR-106; GnRH 0.1 to 10 μg/ml
T1 construct: endogenous in cells; host or cells: OC-3-VGH ovarian cancer cells
T1 sequence (P30968 1-328): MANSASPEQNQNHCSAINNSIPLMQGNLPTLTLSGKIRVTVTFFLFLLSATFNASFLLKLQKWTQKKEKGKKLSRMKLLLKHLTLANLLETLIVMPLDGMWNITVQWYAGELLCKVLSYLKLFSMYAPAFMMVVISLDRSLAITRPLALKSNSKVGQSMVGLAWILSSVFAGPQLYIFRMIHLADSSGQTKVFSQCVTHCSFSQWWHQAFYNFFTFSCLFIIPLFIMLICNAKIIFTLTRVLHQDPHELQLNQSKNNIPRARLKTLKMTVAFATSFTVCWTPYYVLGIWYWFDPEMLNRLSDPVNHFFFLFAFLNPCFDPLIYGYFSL
Experimental: (§1) Microwells coated with synthetic peptide or cancer cells were used to estimate the affinity constant between GHR-106 and GnRH receptor. Following one hour incubation at 37° C. with GHR-106 in microwells, goat anti-mouse IgG labeled with alkaline phosphatase served as the second antibody for signal detection with p-nitrophenylphosphate.
The decrease in relative signal intensity of antibody binding to cancer cells with increasing GnRH concentrations ranging from 0.1 to 10 μg/ml is shown in FIG. 3A.

[4] = target: T2, synthetic peptide corresponding to the N-terminal 1-29 amino acid residues of human GnRH receptor (Homo sapiens, UniProt P30968); assay: ELISA, dose-dependent binding to microwells coated with synthetic peptide; details: one hour incubation at 37° C.
T2 construct: purchased Gemed Lab, South San Francisco, Calif. and Genescript, NJ (custom synthesis)
T2 sequence (P30968 1-29 limits assumed): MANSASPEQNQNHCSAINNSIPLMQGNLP
Experimental: as §1

OC-3-VGH cancer cells = assay: ELISA, dose-dependent binding to microwells coated with cancer cells; set-up: species or system human; details: one hour incubation at 37° C.
Experimental: as §1

human GnRH receptor = target: T3, human GnRH receptor (Homo sapiens, UniProt P30968); assay: Western blot assay of OC-3-VGH ovarian cancer cell extract; type: binding; details: OC-3-VGH cancer cell extract
T3 construct: endogenous in cells; host or cells: OC-3-VGH ovarian cancer cells
T3 sequence (P30968 1-328): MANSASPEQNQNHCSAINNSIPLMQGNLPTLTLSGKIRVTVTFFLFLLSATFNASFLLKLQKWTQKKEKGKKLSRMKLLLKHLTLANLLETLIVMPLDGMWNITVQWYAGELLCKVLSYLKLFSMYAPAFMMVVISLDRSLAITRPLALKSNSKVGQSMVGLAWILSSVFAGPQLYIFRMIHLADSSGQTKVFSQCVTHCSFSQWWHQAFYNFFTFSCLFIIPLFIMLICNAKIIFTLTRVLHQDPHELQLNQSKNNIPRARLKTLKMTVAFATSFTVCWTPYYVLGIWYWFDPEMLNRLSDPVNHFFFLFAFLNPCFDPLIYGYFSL
Experimental: Western blot assay was performed with GHR-106 using alkaline phosphatase-labeled goat anti-mouse IgG as the detecting probe.

Molecule: Antide
- anti-proliferative effect (relative absorbance at 560 nm normalized with negative control) [1]: induce apoptosis, although to a much lesser extent

Molecule: Gonadotropin releasing hormone [GnRH I, reference compound]
- anti-proliferative effect (relative absorbance at 560 nm normalized with negative control) [1]: significantly inhibit the growth of cultured cancer cells
- mRNA expression of four ribosomal proteins (P0, P1, P2 and L37) [2]: down regulation of mRNA expression

Molecule: RP215: antibody used as positive control in the apoptosis assay [reference compound]
- % Apoptosis (Negative Control*) (A549; A549, 10 μg/mL): 30 ± 9 (11 ± 5)^+ %
- % Apoptosis (Negative Control*) (A549; A549, 20 μg/mL): 36 ± 12 (17 ± 3)^+ %
- % Apoptosis (Negative Control*) (DU-145; DU-145, 10 μg/mL): 32 ± 7 (12 ± 3)^+ %
- % Apoptosis (Negative Control*) (DU-145; DU-145, 20 μg/mL): 43 ± 4 (19 ± 15)^− %
- % Apoptosis (Negative Control*) (MDA-MB-435S; 20 μg/mL): 37 ± 8 (6 ± 1)^+ %

Molecule: MANSASPEQNQNHCSAINNSIPLMQGNLP (SEQ ID NO:7) (PEPTIDE (1)...(29) extracellular domain of human GnRH receptor; listed as Homo sapiens) [1-29 synthetic peptide, synthetic peptide corresponding to N-terminal residues 1-29 of human GnRH receptor]
- inhibition of the binding of GHR-106 to cancer cells coated on microwells [3]: inhibit GHR-106 binding

B1: GHR-106: monoclonal antibody against synthetic peptide of positions 1-29 of the extracellular domain of human GnRH receptor; hybridoma ATCC PTA-10252 (antibody, V domains shown)
VL: MDSQAQVLILLLLWVSGTCGDIVMSQSPSSLAVSAGEKVTMSCKSSQSLLNSRTRKNYLAWYQQKPGQSPKLLIYWASTRESGVPDRFTGSGSGTDFTLTISSVQAEDLAVYYCKQSYNLYTFGGGTKLEIK
VH: QVQLKESGPGLVAPSQSLSITCTVSGFSLSRYSVHWVRQPPGKGLEWLGMIWGGGSTDYNSALKSRLSISKDNSKSQVFLKMNSLQTDDTAMYYCARGNDGYYSFAYWGQGTLVTVSS
modifications: Synthetically constructed monoclonal antibody GHR106
- dose-dependent binding to 1-29 synthetic peptide coated onto microwells [4]: dose-dependent binding
- dose-dependent binding to OC-3-VGH cancer cells coated on microwells (OC-3-VGH cancer cells): dose-dependent binding
- molecular weight of protein band recognized in Western blot (human GnRH receptor): approximately 60 KDa
- % Apoptosis (Negative Control*) (A549; A549, 10 μg/mL): 34 ± 10 (11 ± 5)^+ %
- % Apoptosis (Negative Control*) (A549; A549, 20 μg/mL): 46 ± 11 (17 ± 3)^+ %
- % Apoptosis (Negative Control*) (DU-145; DU-145, 10 μg/mL): 32 ± 2 (12 ± 3)^+ %
- % Apoptosis (Negative Control*) (DU-145; DU-145, 20 μg/mL): 32 ± 5 (19 ± 15)^− %
- % Apoptosis (Negative Control*) (MDA-MB-435S; 10 μg/mL): 31 ± 4 (7 ± 2)^+ %
- % Apoptosis (Negative Control*) (MDA-MB-435S; 20 μg/mL): 45 ± 11 (6 ± 1)^+ %
- anti-proliferative effect (relative absorbance at 560 nm normalized with negative control) [1]: significantly inhibit the growth of cultured cancer cells
- mRNA expression of four ribosomal proteins (P0, P1, P2 and L37) [2]: significant decrease in expression

B2: GHR-103: monoclonal antibody to human GnRH receptor; amino acid sequence determined to be the same as that of GHR-106 (antibody, V domains shown)
VL: MDSQAQVLILLLLWVSGTCGDIVMSQSPSSLAVSAGEKVTMSCKSSQSLLNSRTRKNYLAWYQQKPGQSPKLLIYWASTRESGVPDRFTGSGSGTDFTLTISSVQAEDLAVYYCKQSYNLYTFGGGTKLEIK
VH: QVQLKESGPGLVAPSQSLSITCTVSGFSLSRYSVHWVRQPPGKGLEWLGMIWGGGSTDYNSALKSRLSISKDNSKSQVFLKMNSLQTDDTAMYYCARGNDGYYSFAYWGQGTLVTVSS
- dose-dependent binding to 1-29 synthetic peptide coated onto microwells [4]: dose-dependent binding
- dose-dependent binding to OC-3-VGH cancer cells coated on microwells (OC-3-VGH cancer cells): dose-dependent binding
- molecular weight of protein band recognized in Western blot (human GnRH receptor): 60 KDa
